Source: article PMC7763846

Molecular target: T1, recombinant mouse TNF-α (mouse), P06804
T1 chain: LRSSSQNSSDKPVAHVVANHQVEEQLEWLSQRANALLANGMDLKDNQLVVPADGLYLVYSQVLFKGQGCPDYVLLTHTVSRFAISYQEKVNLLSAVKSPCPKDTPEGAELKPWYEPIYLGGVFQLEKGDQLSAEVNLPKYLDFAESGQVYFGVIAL
Assay: cross-linking; 100 ng recombinant TNF-α incubated 1 h at 37 °C with different concentrations of DMSO (or without: cross-linked control), cross-linked with 4.8 mM BS3 for 30 min at room temperature, stopped with 1/10 volume 1 M Tris-HCl pH 7.5; SDS-PAGE and Western blot with anti-TNF-α antibody
Conditions: remark: other sources report otherwise

B1: recombinant mouse TNF-α, P06804 80-235 (ligand)
chain: T1 chain
stoichiometry N: 3
